Results taken from patent publication US20230012273A1 (Boehringer Ingelheim, published 2023).
Changes are numbered by the printed parent chain.

B1: Antibody A2 (antibody, human IgG1, kappa, L234A L235A, V domains shown)
VH: EVQLVESGGGLVQPGGSLRLSCAASGFTLSSYDMHWVRQATGKGLEWVSAIGTAGDTYYTGSVKGRFTISRENAKNSLYLQMNSLRAADTAVYYCVRGGVWDDAFDIWGQGTMVTVSS
VL: DIQMTQSPSSLSASVGDRVTITCRASQGINNYAAWFQQKPGKAPKSLIYTASSLHSGVPSKFSGSGSGTDFTLTISSLQPEDFATYYCQQYVSYPYTFGQGTKLEIKR
B2: Antibody A9 (antibody, human IgG1, kappa, L234A L235A, V domains shown)
VH: B1 VH with T41P, A88D
VL: B1 VL with G28D, A33L
B3: Antibody A6 (antibody, human IgG1, kappa, L234A L235A, V domains shown)
VH: B1 VH with T41P, A88E
VL: B1 VL
B4: Antibody A7 (antibody, human IgG1, kappa, L234A L235A, V domains shown)
VH: B1 VH with A88G
VL: B1 VL
B5: Antibody A3 (antibody, human IgG1, kappa, L234A L235A, V domains shown)
VH: B1 VH with A88S
VL: B1 VL
B6: Antibody A12 (antibody, human IgG1, kappa, L234A L235A, V domains shown)
VH: B1 VH with A88S
VL: B1 VL with G28D, A33L
B7: Antibody A14 (antibody, human IgG1, kappa, L234A L235A, V domains shown)
VH: B1 VH with T41P, A88S
VL: B1 VL with G28D, A33L
B8: Antibody A16 (antibody, human IgG1, kappa, L234A L235A, V domains shown)
VH: B1 VH with T41P, A88G
VL: B1 VL with G28D, A33L
B9: Antibody A15 (antibody, human IgG1, kappa, L234A L235A, V domains shown)
VH: B1 VH with T41P, A88E
VL: B1 VL with G28D, A33L
B10: Antibody A13 (antibody, human IgG1, kappa, L234A L235A, V domains shown)
VH: B1 VH with T41P
VL: B1 VL with G28D, A33L
B11: Antibody A8 (antibody, human IgG1, kappa, L234A L235A, V domains shown)
VH: B1 VH with T41P, A88G
VL: B1 VL

Biological target: T1, cynomolgus SIRPα extracellular domain + His-tag (EGM_02252) (cynomolgus monkey)
T1 construct: also called CySIRPα EGM_02252; cynoSIRPα
T1 chain: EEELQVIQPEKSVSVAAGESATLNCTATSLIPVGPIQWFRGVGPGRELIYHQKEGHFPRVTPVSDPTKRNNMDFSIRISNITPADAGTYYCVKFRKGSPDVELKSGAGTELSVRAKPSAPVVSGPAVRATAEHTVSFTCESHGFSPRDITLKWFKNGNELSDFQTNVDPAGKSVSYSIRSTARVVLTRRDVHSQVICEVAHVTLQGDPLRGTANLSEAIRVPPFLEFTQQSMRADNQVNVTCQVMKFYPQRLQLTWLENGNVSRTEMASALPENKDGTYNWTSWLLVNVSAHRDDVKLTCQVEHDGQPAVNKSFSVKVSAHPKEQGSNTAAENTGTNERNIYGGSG
Assay: SPR, Ab captured, ECD-His analyte
Procedure: (§1) The binding affinity of anti-SIRPα antibodies to the various SIRPα analytes is determined by surface plasmon resonance (SPR) using a ProteOn XPR36 (Bio-Rad). The running buffer for this experiment and all dilutions (except where stated) are done in 1×HBS-EP+. […] The sensorchip is deactivated with 1M ethanolamine HCl for 420 sec at a flowrate of 10 μl/min.
(§2) The analyte is injected over the captured antibody for 300 sec at a flowrate of 30 μl/min. The dissociation is done for 600 sec. Two-fold serial dilutions of each SIRP protein (Extracellular Domain+His-Tag) are injected as analyte with the highest concentrations indicated in table 36 below.

| Binder | Kd [nM] |
| --- | --- |
| B1 | 584 |
| B2 | 227 |
| B3 | 538 |
| B4 | 609 |
| B5 | 571 |
| B6 | 249 |
| B7 | 222 |
| B8 | 225 |
| B9 | 223 |
| B10 | 226 |
| B11 | 535 |

Biological target: T2, cynomolgus SIRPβ1 extracellular domain + His-tag (XP_005568598) (cynomolgus monkey)
T2 construct: also called Cyno SIRPβ1; cynoSIRPβ1
T2 chain: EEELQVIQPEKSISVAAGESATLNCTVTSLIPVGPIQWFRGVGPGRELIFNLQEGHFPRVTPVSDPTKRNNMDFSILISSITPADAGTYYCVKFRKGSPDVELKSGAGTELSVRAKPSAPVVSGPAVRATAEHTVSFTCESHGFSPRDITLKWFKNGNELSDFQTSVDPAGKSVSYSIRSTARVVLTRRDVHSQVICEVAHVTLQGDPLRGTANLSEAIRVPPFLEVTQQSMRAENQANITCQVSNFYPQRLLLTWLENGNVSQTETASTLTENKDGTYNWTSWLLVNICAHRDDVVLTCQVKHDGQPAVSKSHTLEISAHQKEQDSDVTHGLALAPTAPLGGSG
Assay: SPR, Ab captured, ECD-His analyte
Procedure: as §1, §2

| Binder | binding result |
| --- | --- |
| B1 | no binding (tested: 1000 nM) |
| B2 | no binding (tested: 1000 nM) |
| B3 | no binding (tested: 1000 nM) |
| B4 | no binding (tested: 1000 nM) |
| B5 | no binding (tested: 1000 nM) |
| B6 | no binding (tested: 1000 nM) |
| B7 | no binding (tested: 1000 nM) |
| B8 | no binding (tested: 1000 nM) |
| B9 | no binding (tested: 1000 nM) |
| B10 | no binding (tested: 1000 nM) |
| B11 | no binding (tested: 1000 nM) |

Biological target: T3, cynomolgus SIRPγ extracellular domain + His-tag (XP_005568591) (cynomolgus monkey, UniProt Q9P1W8 29-359 (human entry))
T3 construct: also called Cyno SIRPγ; cynoSIRPγ
T3 chain: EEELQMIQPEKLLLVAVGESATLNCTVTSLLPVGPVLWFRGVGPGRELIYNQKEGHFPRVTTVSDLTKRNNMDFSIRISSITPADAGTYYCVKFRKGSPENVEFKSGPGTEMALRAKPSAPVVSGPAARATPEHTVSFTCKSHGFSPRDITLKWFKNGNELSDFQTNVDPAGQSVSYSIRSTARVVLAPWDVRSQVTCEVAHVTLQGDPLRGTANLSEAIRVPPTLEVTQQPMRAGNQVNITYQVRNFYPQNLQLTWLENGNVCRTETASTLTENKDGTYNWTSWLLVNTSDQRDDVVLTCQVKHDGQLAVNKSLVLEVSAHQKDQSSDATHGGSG
Assay: SPR, Ab captured, ECD-His analyte
Procedure: as §1, §2

| Binder | binding result |
| --- | --- |
| B1 | no binding (tested: 1000 nM) |
| B2 | no binding (tested: 1000 nM) |
| B3 | no binding (tested: 1000 nM) |
| B4 | no binding (tested: 1000 nM) |
| B5 | no binding (tested: 1000 nM) |
| B6 | no binding (tested: 1000 nM) |
| B7 | no binding (tested: 1000 nM) |
| B8 | no binding (tested: 1000 nM) |
| B9 | no binding (tested: 1000 nM) |
| B10 | no binding (tested: 1000 nM) |
| B11 | no binding (tested: 1000 nM) |

Biological target: T4, cynomolgus SIRPα extracellular domain + His-tag (XP_015313155) (cynomolgus monkey)
T4 construct: also called CySIRPα XP_015313155; cynoSIRPα
T4 chain: T1 chain with E19D, A27V, T28S, V42A, H51N, Q52L, F227V, M245T
Assay: SPR, Ab captured, ECD-His analyte
Procedure: as §1, §2

| Binder | Kd [nM] |
| --- | --- |
| B1 | 424 |
| B2 | 156 |
| B3 | 366 |
| B4 | 389 |
| B5 | 438 |
| B6 | 182 |
| B7 | 153 |
| B8 | 151 |
| B9 | 154 |
| B10 | 160 |
| B11 | 350 |

Biological target: T5, cynomolgus SIRPβ1v3 extracellular domain + His-tag (XP_005568593) (cynomolgus monkey)
T5 construct: also called Cyno SIRPβ1v3; cynoSIRPβ1v3
T5 chain: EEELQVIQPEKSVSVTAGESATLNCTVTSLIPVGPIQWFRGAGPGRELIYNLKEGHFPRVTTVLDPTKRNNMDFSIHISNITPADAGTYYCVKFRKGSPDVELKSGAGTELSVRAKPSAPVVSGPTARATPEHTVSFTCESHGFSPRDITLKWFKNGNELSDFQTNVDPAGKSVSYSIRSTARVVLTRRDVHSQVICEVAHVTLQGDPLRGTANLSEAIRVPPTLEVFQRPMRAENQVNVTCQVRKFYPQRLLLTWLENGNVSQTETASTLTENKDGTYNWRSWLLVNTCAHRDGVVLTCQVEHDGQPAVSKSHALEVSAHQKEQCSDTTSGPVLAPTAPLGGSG
Assay: SPR, Ab captured, ECD-His analyte
Procedure: as §1, §2

| Binder | Kd [nM] |
| --- | --- |
| B1 | 552 |
| B2 | 257 |
| B3 | 469 |
| B4 | 494 |
| B5 | 564 |
| B6 | 279 |
| B7 | 235 |
| B8 | 225 |
| B9 | 232 |
| B10 | 238 |
| B11 | 449 |

biological target: T6, human SIRPγ extracellular domain + His-tag (NP_061026.2) (human, UniProt Q9P1W8 29-360); assay: SPR, Ab captured, ECD-His analyte
T6 construct: also called hSIRPγ; HuSIRPγ
Procedure: as §1, §2

T6 sequence (Q9P1W8 29-360): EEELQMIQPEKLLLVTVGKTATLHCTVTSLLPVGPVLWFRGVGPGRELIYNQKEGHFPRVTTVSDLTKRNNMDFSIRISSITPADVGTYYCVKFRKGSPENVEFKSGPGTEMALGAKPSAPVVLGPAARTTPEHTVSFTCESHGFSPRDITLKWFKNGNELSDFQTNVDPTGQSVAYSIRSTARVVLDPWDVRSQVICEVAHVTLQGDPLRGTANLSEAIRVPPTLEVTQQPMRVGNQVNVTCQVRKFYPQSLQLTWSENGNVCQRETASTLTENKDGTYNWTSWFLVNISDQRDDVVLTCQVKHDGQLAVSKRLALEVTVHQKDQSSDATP

| Binder | binding result |
| --- | --- |
| B1 | no binding (tested: 1000 nM) |
| B2 | no binding (tested: 1000 nM) |
| B3 | no binding (tested: 1000 nM) |
| B4 | no binding (tested: 1000 nM) |
| B5 | no binding (tested: 1000 nM) |
| B6 | no binding (tested: 1000 nM) |
| B7 | no binding (tested: 1000 nM) |
| B8 | no binding (tested: 1000 nM) |
| B9 | no binding (tested: 1000 nM) |
| B10 | no binding (tested: 1000 nM) |
| B11 | no binding (tested: 1000 nM) |

biological target: T7, human SIRPβL/SIRPβ1v3 extracellular domain + His-tag (NP_001129316.1) (human, UniProt Q5TFQ8 30-371); assay: SPR, Ab captured, ECD-His analyte
T7 construct: also called hSIRPβ1v3; HuSIRPβ1v3
Procedure: as §1, §2

T7 sequence (Q5TFQ8 other isoform, or with tags, fused parts or gaps): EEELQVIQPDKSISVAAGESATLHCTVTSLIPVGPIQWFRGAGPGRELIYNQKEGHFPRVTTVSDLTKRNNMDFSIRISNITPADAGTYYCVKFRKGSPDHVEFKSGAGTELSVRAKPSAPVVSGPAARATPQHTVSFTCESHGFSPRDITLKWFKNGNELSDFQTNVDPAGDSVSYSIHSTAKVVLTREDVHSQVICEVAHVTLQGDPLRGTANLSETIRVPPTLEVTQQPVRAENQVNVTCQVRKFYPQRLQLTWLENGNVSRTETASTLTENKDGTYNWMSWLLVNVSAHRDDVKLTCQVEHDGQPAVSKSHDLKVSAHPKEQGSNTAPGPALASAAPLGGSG

| Binder | binding result |
| --- | --- |
| B1 | no binding (tested: 100 nM) |
| B2 | no binding (tested: 100 nM) |
| B3 | no binding (tested: 100 nM) |
| B4 | no binding (tested: 100 nM) |
| B5 | no binding (tested: 100 nM) |
| B6 | no binding (tested: 100 nM) |
| B7 | no binding (tested: 100 nM) |
| B8 | no binding (tested: 100 nM) |
| B9 | no binding (tested: 100 nM) |
| B10 | no binding (tested: 100 nM) |
| B11 | no binding (tested: 100 nM) |

biological target: T8, human SIRPβ1 extracellular domain + His-tag (NP_006056.2) (human, UniProt O00241 30-371); assay: SPR, Ab captured, ECD-His analyte
T8 construct: also called hSIRPβ1; HuSIRPβ1
Procedure: as §1, §2

T8 sequence (O00241 other isoform, or with tags, fused parts or gaps): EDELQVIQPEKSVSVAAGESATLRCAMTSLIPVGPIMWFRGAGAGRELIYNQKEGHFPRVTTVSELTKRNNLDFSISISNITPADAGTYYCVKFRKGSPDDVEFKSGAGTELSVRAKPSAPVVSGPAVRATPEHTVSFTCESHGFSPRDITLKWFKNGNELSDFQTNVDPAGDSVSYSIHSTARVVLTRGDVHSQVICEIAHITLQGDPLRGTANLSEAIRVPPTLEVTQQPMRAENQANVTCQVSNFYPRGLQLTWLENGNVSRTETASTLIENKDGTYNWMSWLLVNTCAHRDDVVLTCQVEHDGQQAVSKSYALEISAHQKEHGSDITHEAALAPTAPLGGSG

| Binder | Kd [nM] |
| --- | --- |
| B1 | 77.5 |
| B2 | 58.8 |
| B3 | 65.1 |
| B4 | 72.2 |
| B5 | 70.3 |
| B6 | 64.4 |
| B7 | 58.3 |
| B8 | 62.7 |
| B9 | 58.8 |
| B10 | 61 |
| B11 | 69.6 |
